From paper PMC11931385, “Structural and functional analysis of cancer-associated missense variants in the retinoblastoma protein pocket domain” (The Journal of Biological Chemistry, 2025)
No end group written: not given here. TMR = tetramethyl rhodamine dye

Experiments:
Assay in all cases: fluorescence polarisation; 37 °C, after the 25 °C reading ramped over 7 min to 37 °C and 2 min incubation; unlabeled Rb^P against 1.5 nM TMR-E2F1^TD or 7.5 nM TMR-E7^LxCxE; 25 mM Tris pH 8.0, 200 mM NaCl, 1 mM DTT, 0.1% Tween-20; apparent Kd
Settings in all cases: both partners purified
Rb^P H673P = biological target: T1, Rb^P H673P (human, UniProt P06400 380-788, H673P)
T1 construct: also called variant 54
T1 sequence (looked up): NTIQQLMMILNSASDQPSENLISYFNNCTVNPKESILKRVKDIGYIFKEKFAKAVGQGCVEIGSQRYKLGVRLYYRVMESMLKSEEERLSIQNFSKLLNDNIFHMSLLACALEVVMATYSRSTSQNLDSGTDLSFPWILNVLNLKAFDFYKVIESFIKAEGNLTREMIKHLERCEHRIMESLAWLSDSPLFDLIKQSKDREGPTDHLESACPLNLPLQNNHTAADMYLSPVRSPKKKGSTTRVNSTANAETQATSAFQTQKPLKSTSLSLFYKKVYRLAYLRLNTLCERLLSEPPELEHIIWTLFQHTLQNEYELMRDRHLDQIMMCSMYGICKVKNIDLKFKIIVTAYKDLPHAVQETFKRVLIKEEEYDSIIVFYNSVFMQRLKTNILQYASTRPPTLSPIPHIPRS

Rb^P Y606C = biological target: T2, Rb^P Y606C (human, UniProt P06400 380-788, Y606C)
T2 construct: also called variant 37
T2 sequence (looked up): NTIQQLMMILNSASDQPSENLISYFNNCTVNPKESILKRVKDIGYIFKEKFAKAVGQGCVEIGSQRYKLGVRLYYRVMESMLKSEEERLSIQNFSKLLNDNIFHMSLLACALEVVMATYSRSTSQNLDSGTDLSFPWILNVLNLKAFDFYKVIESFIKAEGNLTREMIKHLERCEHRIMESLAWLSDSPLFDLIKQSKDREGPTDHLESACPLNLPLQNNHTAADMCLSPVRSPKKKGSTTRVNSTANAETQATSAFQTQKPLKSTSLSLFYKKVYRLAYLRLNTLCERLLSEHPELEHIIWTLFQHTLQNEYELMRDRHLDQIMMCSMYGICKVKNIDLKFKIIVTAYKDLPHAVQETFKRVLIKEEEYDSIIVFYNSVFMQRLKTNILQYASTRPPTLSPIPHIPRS

Rb^P D584Y = biological target: T3, Rb^P D584Y (human, UniProt P06400 380-788, D584Y)
T3 construct: also called variant 32
T3 sequence (looked up): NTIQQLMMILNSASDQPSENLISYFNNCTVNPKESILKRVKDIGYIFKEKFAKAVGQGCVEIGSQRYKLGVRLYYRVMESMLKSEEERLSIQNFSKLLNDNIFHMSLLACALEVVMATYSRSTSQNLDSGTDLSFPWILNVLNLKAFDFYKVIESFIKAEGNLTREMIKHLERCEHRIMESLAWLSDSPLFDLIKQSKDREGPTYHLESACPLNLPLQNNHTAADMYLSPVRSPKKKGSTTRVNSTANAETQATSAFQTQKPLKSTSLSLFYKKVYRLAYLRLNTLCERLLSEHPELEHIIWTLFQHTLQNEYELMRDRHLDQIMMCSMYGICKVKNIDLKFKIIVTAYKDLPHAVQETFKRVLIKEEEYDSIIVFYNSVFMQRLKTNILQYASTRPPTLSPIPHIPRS

Rb^P K462E = biological target: T4, Rb^P K462E (human, UniProt P06400 380-788, K462E)
T4 construct: also called variant 8
T4 sequence (looked up): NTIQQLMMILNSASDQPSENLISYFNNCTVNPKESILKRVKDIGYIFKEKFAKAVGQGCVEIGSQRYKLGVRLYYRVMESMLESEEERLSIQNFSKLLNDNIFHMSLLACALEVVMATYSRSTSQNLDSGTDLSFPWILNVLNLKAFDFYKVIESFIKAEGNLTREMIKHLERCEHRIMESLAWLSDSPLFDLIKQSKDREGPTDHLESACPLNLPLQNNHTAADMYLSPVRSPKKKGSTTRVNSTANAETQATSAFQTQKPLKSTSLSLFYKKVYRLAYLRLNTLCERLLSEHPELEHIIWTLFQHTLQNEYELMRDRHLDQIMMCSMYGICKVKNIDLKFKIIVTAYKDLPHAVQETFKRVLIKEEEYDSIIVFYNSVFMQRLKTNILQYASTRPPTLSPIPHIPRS

Rb^P M546I = biological target: T5, Rb^P M546I (human, UniProt P06400 380-788, M546I)
T5 construct: also called variant 25
T5 sequence (looked up): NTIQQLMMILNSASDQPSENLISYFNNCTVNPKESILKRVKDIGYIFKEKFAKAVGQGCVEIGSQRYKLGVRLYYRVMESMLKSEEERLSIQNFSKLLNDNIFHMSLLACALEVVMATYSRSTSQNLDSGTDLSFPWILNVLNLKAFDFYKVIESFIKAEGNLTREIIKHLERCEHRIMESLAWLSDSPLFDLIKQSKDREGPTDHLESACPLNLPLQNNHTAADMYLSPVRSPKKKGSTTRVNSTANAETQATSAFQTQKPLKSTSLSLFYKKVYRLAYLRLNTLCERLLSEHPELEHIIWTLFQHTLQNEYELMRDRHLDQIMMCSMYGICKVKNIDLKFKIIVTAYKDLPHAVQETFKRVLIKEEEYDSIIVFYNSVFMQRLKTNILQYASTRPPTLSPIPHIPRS

B1: TMR-E2F1^TD, peptide of the E2F1 transactivation domain (peptide)
peptide: {TMR}-GEGIRDLFDCDFGDLTPLD
notes: also called E2F^TD; source: synthetic peptide, bought: GenScript
Rb^P H673P
  Kd: 98 nM
Rb^P Y606C
  Kd: 27 nM
Rb^P D584Y
  Kd: 51 nM
Rb^P K462E
  Kd: 67 nM
Rb^P M546I
  Kd: 21 nM

B2: TMR-E7^LxCxE, LxCxE peptide of the E7 oncoprotein from HPV (peptide)
peptide: DLYCYEQLN
modifications: also: TMR label, position not given here
notes: source: synthetic peptide, bought: GenScript
Rb^P H673P
  Kd: 83 nM
Rb^P Y606C
  Kd: 23 nM
Rb^P D584Y
  Kd: 20 nM
Rb^P K462E
  Kd: 32 nM
Rb^P M546I
  Kd: 13 nM
